Experimental data taken from article PMC5300068 (2017).

B1: MASP-1 (protein)
chain: HTVELNNMFGQIQSPGYPDSYPSDSEVTWNITVPDGFRIKLYFMHFNLESSYLCEYDYVKVETEDQVLATFCGRETTDTEQTPGQEVVLSPGSFMSITFRSDFSNEERFTGFDAHYMAVDVDECKEREDEELSCDHYCHNYIGGYYCSCRFGYILHTDNRTCRVECSDNLFTQRTGVITSPDFPNPYPKSSECLYTIELEEGFMVNLQFEDIFDIEDHPEVPCPYDYIKIKVGPKVLGPFCGEKAPEPISTQSHSVLILFHSDNSGENRGWRLSYRAAGNECPELQPPVHGKIEPSQAKYFFKDQVLVSCDTGYKVLKDNVEMDTFQIECLKDGTWSNKIPTCKIVDCRAPGELEHGLITFSTRNNLTTYKSEIKYSCQEPYYKMLNNNTGIYTCSAQGVWMNKVLGRSLPTCLPVCGLPKFSRKLMARIFNGRPAQKGTTPWIAMLSHLNGQPFCGGSLLGSSWIVTAAHCLHQSLDPEDPTLRDSDLLSPSDFKIILGKHWRLRSDENEQHLGVKHTTLHPQYDPNTFENDVALVELLESPVLNAFVMPICLPEGPQQEGAMVIVSGWGKQFLQRFPETLMEIEIPIVDHSTCQKAYAPLKKKVTRDMICAGEKEGGKDACAGDSGGPMVTLNRERGQWYLVGTVSWGDDCGKKDRYGVYSYIHHNKDWIQRVTGVRN
B2: MASP-2 (protein)
chain: TPLGPKWPEPVFGRLASPGFPGEYANDQERRWTLTAPPGYRLRLYFTHFDLELSHLCEYDFVKLSSGAKVLATLCGQESTDTERAPGKDTFYSLGSSLDITFRSDYSNEKPFTGFEAFYAAEDIDECQVAPGEAPTCDHHCHNHLGGFYCSCRAGYVLHRNKRTCSALCSGQVFTQRSGELSSPEYPRPYPKLSSCTYSISLEEGFSVILDFVESFDVETHPETLCPYDFLKIQTDREEHGPFCGKTLPHRIETKSNTVTITFVTDESGDHTGWKIHYTSTAQPCPYPMAPPNGHVSPVQAKYILKDSFSIFCETGYELLQGHLPLKSFTAVCQKDGSWDRPMPACSIVDCGPPDDLPSGRVEYITGPGVTTYKAVIQYSCEETFYTMKVNDGKYVCEADGFWTSSKGEKSLPVCEPVCGLSARTTGGRIYGGQKAKPGDFPWQVLILGGTTAAGALLYDNWVLTAAHAVYEQKHDASALDIRMGTLKRLSPHYTQAWSEAVFIHEGYTHDAGFDNDIALIKLNNKVVINSNITPICLPRKEAESFMRTDDIGTASGWGLTQRGFLARNLMYVDIPIVDHQKCTAAYEKPPYPRGSVTANMLCAGLESGGKDSCRGDSGGALVFLDSETERWFVGGIVSWGSMNCGEAGQYGVYTKVINYIPWIENIISDF

Molecular target: the molecule itself
Experiment: AUC

| Protein | Kd [nM] |
| --- | --- |
| B1 | < 10 |
| B2 | < 10 |
